Laboratory results taken from US20030064070A1.

Biological target: recombinant human TNFα (rhTNF) (human) (UniProt P01375)
Assay: cell-based or functional assay

Chain of UniProt P01375 (P01375 77-233 limits assumed): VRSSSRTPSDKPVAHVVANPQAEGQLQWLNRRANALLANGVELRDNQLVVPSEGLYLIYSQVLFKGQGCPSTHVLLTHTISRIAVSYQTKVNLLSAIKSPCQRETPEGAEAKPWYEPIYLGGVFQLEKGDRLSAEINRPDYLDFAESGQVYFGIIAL

B1: chimeric mouse/human IgG1 anti-platelet mAb (7E3) (antibody, INN chains, looked up, V domains shown)
VH: EVQLQQSGTVLARPGASVKMSCEASGYTFTNYWMHWVKQRPGQGLEWIGAIYPGNSDTSYIQKFKGKAKLTAVTSTTSVYMELSSLTNEDSAVYYCTLYDGYYVFAYWGQGTLVTVSA
VL: EIVLTQSPVTLSVTPGDSVSLSCRASRDISNNLHWFQQTSHESPRLLIKYASQSMSGIPSRFSGSGSGTDFTLSINSVETEDFGMYFCQQTNSWPYTFGGGTKLEIK
modifications: IgG1
IL-6 in supernatant of FS-4 fibroblasts, TNF 0.3 ng/ml, antibody 4 µg/ml: 1.6 ng/mL | IL-6 in supernatant of FS-4 fibroblasts, TNF 1.5 ng/ml, antibody 4 µg/ml: 1.96 ng/mL | IL-6 in supernatant of FS-4 fibroblasts, TNF 7.5 ng/ml, antibody 4 µg/ml: 2.16 ng/mL
